Source: the Immune Epitope Database (IEDB)

Assays:
HLA-A*01:01 = test: IEDB peptide-MHC binding, purified MHC/direct/fluorescence; filed as Kd, often an IC50 or EC50 that approximates it; ≥ and ≤ were set here for values at or beyond the usual limits of such assays
HLA-A*02:01 [1] = test: as above
HLA-A*03:01 = test: as above
HLA-A*11:01 [2] = test: as above; details: source organism: Marburg virus - Musoke, Kenya, 1980
HLA-A*26:01 [3] = test: as above
HLA-A*26:02 [4] = test: as above; details: source organism: Ravn virus - Ravn, Kenya, 1987
HLA-A*26:03 = test: as above
HLA-A*31:01 [5] = test: as above
HLA-A*68:02 [6] = test: as above
HLA-A*69:01 = test: as above
HLA-B*07:02 = test: as above
HLA-B*08:01 = test: as above
HLA-B*08:03 = test: as above
HLA-B*15:01 [7] = test: as above
HLA-B*15:17 [8] = test: as above
HLA-B*18:01 [9] = test: as above; details: source organism: Marburg virus - Musoke, Kenya, 1980
HLA-B*27:05 = test: as above
HLA-B*40:01 = test: as above; details: source organism: Marburg virus - Musoke, Kenya, 1980
HLA-B*46:01 = test: as above
HLA-B*48:01 = test: as above
HLA-B*57:01 [10] = test: as above
HLA-B*58:01 [11] = test: as above
HLA-B*58:01 [12] = test: IEDB peptide-MHC binding, purified MHC/competitive/radioactivity; filed as Kd, often an IC50 or EC50 that approximates it; ≥ and ≤ were set here for values at or beyond the usual limits of such assays
HLA-B*57:01 [13] = test: as above
HLA-A*24:03 = test: IEDB peptide-MHC binding, purified MHC/direct/fluorescence; filed as Kd, often an IC50 or EC50 that approximates it; ≥ and ≤ were set here for values at or beyond the usual limits of such assays
HLA-A*30:01 [14] = test: as above; details: source organism: Variola virus
HLA-B*15:09 = test: as above
HLA-B*39:01 = test: as above
HLA-C*14:02 = test: as above; details: source organism: Variola major virus
HLA-C*15:02 = test: as above; details: source organism: Variola major virus
HLA-A*11:01 [15] = test: IEDB peptide-MHC binding, purified MHC/competitive/fluorescence; filed as Kd, often an IC50 or EC50 that approximates it; ≥ and ≤ were set here for values at or beyond the usual limits of such assays
HLA-A*26:02 [16] = test: as above
HLA-A*31:01 [17] = test: as above
HLA-A*68:02 [18] = test: as above
HLA-B*15:01 [19] = test: as above; details: source organism: Variola major virus
HLA-B*18:01 [20] = test: as above
HLA-B*08:02 = test: IEDB peptide-MHC binding, purified MHC/direct/fluorescence; filed as Kd, often an IC50 or EC50 that approximates it; ≥ and ≤ were set here for values at or beyond the usual limits of such assays
HLA-A*02:01 [21] = test: IEDB peptide-MHC binding, purified MHC/competitive/fluorescence; filed as Kd, often an IC50 or EC50 that approximates it; ≥ and ≤ were set here for values at or beyond the usual limits of such assays; details: source organism: Orthomarburgvirus marburgense
HLA-A*02:06 = test: as above; details: source organism: Orthomarburgvirus marburgense
HLA-A*26:01 [22] = test: as above; details: source organism: Orthomarburgvirus marburgense
HLA-A*30:01 [23] = test: as above; details: source organism: Orthomarburgvirus marburgense
HLA-B*15:17 [24] = test: as above; details: source organism: Influenza A virus H3N2
HLA-B*35:01 = test: as above; details: source organism: Influenza A virus H3N2
HLA-B*57:01 [25] = test: as above; details: source organism: Influenza A virus H3N2
[26] = source organism: Marburg virus - Musoke, Kenya, 1980
[27] = source organism: Ravn virus - Ravn, Kenya, 1987
[28] = source organism: Dengue virus 3 Martinique/1243/1999
[29] = source organism: Dengue virus 4 Philippines/H241/1956
[30] = source organism: Buffalopox virus
[31] = source organism: Variola major virus
[32] = source organism: Lake Victoria marburgvirus - Popp
[33] = source organism: Orthomarburgvirus marburgense
[34] = source organism: Influenza A virus (A/Swine/Italy/25823/94(H3N2))
[35] = source organism: Influenza A virus(A/swine/Shandong/fNY/2003(H9N2))
[36] = source organism: Influenza A virus H3N2

With CVFKFIVAK the Kd (HLA-A*01:01; [26]) was no less than 20 µM, the Kd (HLA-A*02:01 [1]; [26]) was no less than 20 µM and the Kd (HLA-A*03:01; [26]) was 0.391 µM. The Kd (HLA-A*11:01 [2]) was 0.031 µM, the Kd (HLA-A*26:01 [3]; [27]) was no less than 20 µM and the Kd (HLA-A*26:02 [4]) was no less than 20 µM. It also gave a Kd (HLA-A*26:03; [27]) of no less than 20 µM, a Kd (HLA-A*31:01 [5]; [26]) of 0.275 µM and a Kd (HLA-A*68:02 [6]; [26]) of no less than 20 µM. It also gave a Kd (HLA-A*69:01; [26]) of no less than 20 µM, a Kd (HLA-B*07:02; [26]) of no less than 20 µM and a Kd (HLA-B*08:01; [27]) of no less than 20 µM. The Kd (HLA-B*08:03; [27]) was no less than 20 µM, the Kd (HLA-B*15:01 [7]; [26]) was no less than 20 µM and the Kd (HLA-B*15:17 [8]; [26]) was no less than 20 µM. For the same sequence, the Kd (HLA-B*18:01 [9]) was no less than 20 µM, the Kd (HLA-B*27:05; [26]) was no less than 20 µM and the Kd (HLA-B*40:01) was no less than 20 µM. It also gave a Kd (HLA-B*46:01; [26]) of no less than 20 µM, a Kd (HLA-B*48:01; [26]) of no less than 20 µM and a Kd (HLA-B*57:01 [10]; [26]) of no less than 20 µM. For the same sequence, the Kd (HLA-B*58:01 [11]; [26]) was no less than 20 µM.

For PSVVETLEQM, the Kd (HLA-B*58:01 [12]; source organism: Dengue virus 1 Brazil/97-11/1997) was 0.321 µM.

Work on KAAVEDEDF yielded a Kd (HLA-B*58:01 [12]; [28]) of 0.0766 µM.

In the case of RTSCLQKQSH, the Kd (HLA-B*57:01 [13]; [29]) is reported as 0.61 µM.

Work on LGKAYAQMW yielded a Kd (HLA-B*57:01 [13]; [28]) of 0.207 µM.

For RYPGVMYAF, the Kd (HLA-A*01:01; [30]) was no less than 20 µM, the Kd (HLA-A*02:01 [1]; [30]) was no less than 20 µM and the Kd (HLA-A*24:03; [30]) was 0.002 µM. For the same sequence, the Kd (HLA-A*26:01 [3]; source organism: Variola virus) was no less than 20 µM, the Kd (HLA-A*26:03; source organism: Variola virus) was no less than 20 µM and the Kd (HLA-A*30:01 [14]) was 4 µM. The Kd (HLA-A*69:01; [30]) was no less than 20 µM, the Kd (HLA-B*07:02; [30]) was no less than 20 µM and the Kd (HLA-B*08:03; source organism: Variola virus) was no less than 20 µM. The Kd (HLA-B*15:09; source organism: Variola virus) was no less than 20 µM, the Kd (HLA-B*39:01; source organism: Variola virus) was no less than 20 µM and the Kd (HLA-B*57:01 [10]; [30]) was no less than 20 µM. It also gave a Kd (HLA-B*58:01 [11]; [30]) of no less than 20 µM, a Kd (HLA-C*14:02) of 0.016 µM and a Kd (HLA-C*15:02) of no less than 20 µM. It also gave a Kd (HLA-A*11:01 [15]; [31]) of 4.3 µM, a Kd (HLA-A*26:02 [16]; [31]) of 4.76 µM and a Kd (HLA-A*31:01 [17]; [31]) of 0.122 µM. The Kd (HLA-A*68:02 [18]; [31]) was no less than 20 µM, the Kd (HLA-B*15:01 [19]) was 3.62 µM and the Kd (HLA-B*18:01 [20]; [31]) was 0.989 µM.

Work on FLMRNAIQY yielded a Kd (HLA-A*01:01; [32]) of 0.0372 µM, a Kd (HLA-A*26:03; [33]) of no less than 20 µM and a Kd (HLA-A*31:01 [5]; [32]) of no less than 20 µM. It also gave a Kd (HLA-A*68:02 [6]; [32]) of no less than 20 µM, a Kd (HLA-A*69:01; [32]) of no less than 20 µM and a Kd (HLA-B*07:02; [32]) of no less than 20 µM. The Kd (HLA-B*08:02; [33]) was no less than 20 µM, the Kd (HLA-B*08:03; [33]) was no less than 20 µM and the Kd (HLA-B*15:01 [7]; [32]) was 0.188 µM. It also gave a Kd (HLA-B*15:09; [33]) of no less than 20 µM, a Kd (HLA-B*15:17 [8]; [32]) of 0.157 µM and a Kd (HLA-B*27:05; [32]) of no less than 20 µM. The Kd (HLA-B*39:01; [33]) was no less than 20 µM, the Kd (HLA-B*46:01; [32]) was 4.14 µM and the Kd (HLA-B*48:01; [32]) was no less than 20 µM. The Kd (HLA-B*57:01 [10]; [32]) was no less than 20 µM, the Kd (HLA-B*58:01 [11]; [32]) was no less than 20 µM and the Kd (HLA-A*02:01 [21]) was 0.254 µM. It also gave a Kd (HLA-A*02:06) of 2.27 µM, a Kd (HLA-A*11:01 [15]; [33]) of 3.87 µM and a Kd (HLA-A*26:01 [22]) of 2.58 µM. For the same sequence, the Kd (HLA-A*26:02 [16]; [33]) was 1.92 µM and the Kd (HLA-A*30:01 [23]) was 2.77 µM.

For TTRLENIMW, the Kd (HLA-B*57:01 [13]; [29]) was 0.0133 µM.

SFSFGGFTF gave a Kd (HLA-A*01:01; [34]) of no less than 20 µM, a Kd (HLA-A*02:01 [1]; [34]) of no less than 20 µM and a Kd (HLA-A*03:01; [34]) of no less than 20 µM. For the same sequence, the Kd (HLA-A*24:03; [34]) was no more than 0.001 µM, the Kd (HLA-B*07:02; [34]) was no less than 20 µM and the Kd (HLA-B*08:01; [35]) was no less than 20 µM. For the same sequence, the Kd (HLA-B*08:02; [35]) was no less than 20 µM, the Kd (HLA-B*08:03; [35]) was no less than 20 µM and the Kd (HLA-B*15:01 [7]; [34]) was 0.0375 µM. It also gave a Kd (HLA-B*15:09; [35]) of no less than 20 µM, a Kd (HLA-B*27:05; [34]) of no less than 20 µM and a Kd (HLA-B*58:01 [11]; [34]) of 0.0625 µM. The Kd (HLA-A*11:01 [15]; [36]) was no less than 20 µM, the Kd (HLA-A*26:02 [16]; [36]) was 1.84 µM and the Kd (HLA-A*31:01 [17]; [36]) was no less than 20 µM. The Kd (HLA-A*68:02 [18]; [36]) was 2.44 µM, the Kd (HLA-B*15:17 [24]) was 0.04 µM and the Kd (HLA-B*18:01 [20]; [36]) was 0.2 µM. It also gave a Kd (HLA-B*35:01) of 0.285 µM and a Kd (HLA-B*57:01 [25]) of 2.36 µM.
